Measurements published in the supplement of paper PMC10724198.
± gives the standard deviation of the averaged measurements.
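Also: PSI is a weighted mean of sequencing reads over stability bins, variants kept only with over 10 reads, mCherry proximal and sfGFP distal, peptide attached via GGGS linker.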

Each sequence was assayed on Saccharomyces cerevisiae (assay: protein stability index of tFT-peptide fusion (C-terminal peptide) (PSI (0-1 scale)); higher = more stable (slower turnover)). Details: genetic background: wild type; temperature: 30 C.
PPRPPGFPPALF gave a protein stability index of 0.697 ± 0.018.
With PPRPPPHPAPLS the protein stability index was 0.755 ± 0.019.
PPRPPRPPYPPP was tested, and the protein stability index was 0.609 ± 0.024.
PPRPPSPPASRA gave a protein stability index of 0.77 ± 0.076.
With PPRSPPPTPPLF the protein stability index was 0.611 ± 0.01.
Work on PPRVPCLVPKSR yielded a protein stability index of 0.715 ± 0.014.
Work on PPSAPPPLPPLL yielded a protein stability index of 0.7599 ± 0.0043.
PPSAPPPSYHPP gave a protein stability index of 0.607 ± 0.045.
PPSDRPTVPPPP gave a protein stability index of 0.709 ± 0.017.
Work on PPSFDPSPPSSL yielded a protein stability index of 0.696 ± 0.042.
Work on PPSGPTDTQEQG yielded a protein stability index of 0.661 ± 0.035.
With PPSLEPFSPSPR the protein stability index was 0.639 ± 0.013.
With PPSLLPFDPSLP the protein stability index was 0.708 ± 0.082.
PPSLLRPYPLLS was tested, and the protein stability index was 0.66 ± 0.028.
PPSLPPPPLSQP was tested, and the protein stability index was 0.68 ± 0.026.
With PPSLPRPPAFAP the protein stability index was 0.689 ± 0.023.
With PPSPARFPPPSS the protein stability index was 0.632 ± 0.015.
PPSPHPPPSAPP gave a protein stability index of 0.6411 ± 0.0028.
In the case of PPSPLPPPPPHP, the protein stability index is reported as 0.651 ± 0.079.
With PPSPPALPRFLL the protein stability index was 0.697 ± 0.025.
In the case of PPSPPAVISAGL, the protein stability index is reported as 0.716 ± 0.066.
PPSPPCHTVTSA gave a protein stability index of 0.679 ± 0.054.
PPSPPHIHTYLT showed a protein stability index of 0.6939 ± 0.0011.
PPSPPPPLPPPA gave a protein stability index of 0.6897 ± 0.0041.
With PPSPPPPPPRPP the protein stability index was 0.64 ± 0.022.
Work on PPSPSPLPPRPL yielded a protein stability index of 0.717 ± 0.04.
PPSRLYFLSPRS gave a protein stability index of 0.746 ± 0.039.
PPSRPPPRLLFA gave a protein stability index of 0.659 ± 0.048.
Work on PPSSPPLAPPFL yielded a protein stability index of 0.709 ± 0.029.
PPSSPPLQHPPP was tested, and the protein stability index was 0.598 ± 0.038.
For PPSSPPPPDSDR, the protein stability index was 0.6746 ± 0.0037.
For PPSTNRDGRKRT, the protein stability index was 0.644 ± 0.026.
Work on PPSWLPLLPPPP yielded a protein stability index of 0.688 ± 0.078.
With PPSYYPPPYLAF the protein stability index was 0.653 ± 0.034.
PPTLHVSPLCPL showed a protein stability index of 0.607 ± 0.013.
With PPTPPCTSSPAR the protein stability index was 0.739 ± 0.084.
In the case of PPTPRLPPPRLP, the protein stability index is reported as 0.67 ± 0.045.
In the case of PPTQSRLPLPLL, the protein stability index is reported as 0.674 ± 0.033.
Sequence PPVISAPIPLAP has a protein stability index of 0.688 ± 0.052.
Sequence PPVLRTPPAPLI has a protein stability index of 0.681 ± 0.058.
With PPVPPPSPPRLL the protein stability index was 0.673 ± 0.03.
PPVTAPPPPLRS was tested, and the protein stability index was 0.692 ± 0.014.
With PQAQCTALLTQR the protein stability index was 0.659 ± 0.085.
In the case of PQESRAWTLSSA, the protein stability index is reported as 0.713 ± 0.05.
With PQPRDSLFSLGN the protein stability index was 0.691 ± 0.032.
Sequence PQRRPPASTRSD has a protein stability index of 0.682 ± 0.018.
In the case of PQRTTPPRRHTA, the protein stability index is reported as 0.717 ± 0.032.
Sequence PQTPPSTLLLPP has a protein stability index of 0.61 ± 0.1.
Work on PRALSMGGPRYQ yielded a protein stability index of 0.5929 ± 0.0021.
PRAPPPSPPPRP gave a protein stability index of 0.651 ± 0.04.
PRCRSLPPLRVL gave a protein stability index of 0.6975 ± 0.0037.
In the case of PRDTTIPLVLGF, the protein stability index is reported as 0.63756 ± 0.00037.
PRFFTRYRCYSA gave a protein stability index of 0.793 ± 0.064.
Work on PRFGADVQKLVG yielded a protein stability index of 0.653 ± 0.045.
In the case of PRFPLPPHPSPR, the protein stability index is reported as 0.704 ± 0.03.
Work on PRGKVLPFAFAC yielded a protein stability index of 0.554 ± 0.019.
In the case of PRGLRIHSRLRG, the protein stability index is reported as 0.678 ± 0.01.
PRGPPGILSRPP showed a protein stability index of 0.6736 ± 0.00089.
With PRGSSRSTFFLF the protein stability index was 0.603 ± 0.046.
PRHYSPPPVPSR was tested, and the protein stability index was 0.686 ± 0.026.
PRIWDLVDIGTL showed a protein stability index of 0.735 ± 0.022.
PRLCLVAGRCRS showed a protein stability index of 0.614 ± 0.04.
PRLFLSICPFSF was tested, and the protein stability index was 0.682 ± 0.051.
For PRLPHPPPFDSL, the protein stability index was 0.676 ± 0.016.
PRLPHPPPPLPL gave a protein stability index of 0.669 ± 0.079.
PRLPPRSPRPPA showed a protein stability index of 0.7369 ± 0.0048.
With PRLVFSVSSLGL the protein stability index was 0.7 ± 0.038.
In the case of PRLVTLALPRTR, the protein stability index is reported as 0.716 ± 0.015.
Sequence PRPALRPLPVYP has a protein stability index of 0.612 ± 0.068.
PRPAPPPPSTPP gave a protein stability index of 0.6411 ± 0.0051.
In the case of PRPCSPPPPDPC, the protein stability index is reported as 0.703 ± 0.022.
Sequence PRPFAPPPPPHD has a protein stability index of 0.808 ± 0.094.
PRPHPPPLPCPP showed a protein stability index of 0.714 ± 0.04.
PRPLASRITSPA gave a protein stability index of 0.692 ± 0.036.
With PRPLPPPLPCPP the protein stability index was 0.682 ± 0.015.
PRPLPPPPPLST was tested, and the protein stability index was 0.654 ± 0.061.
Work on PRPLSPLPPSAL yielded a protein stability index of 0.66 ± 0.05.
With PRPPAGSFPSSL the protein stability index was 0.7 ± 0.053.
With PRPPPPLPPFPP the protein stability index was 0.6602 ± 0.0011.
In the case of PRPPPPPPPLPP, the protein stability index is reported as 0.692 ± 0.03.
PRPPPPRPPFST gave a protein stability index of 0.717 ± 0.01.
PRPPPPSPIPPL gave a protein stability index of 0.7265 ± 0.0018.
For PRPPSPPADPAP, the protein stability index was 0.744 ± 0.013.
Sequence PRPPYPRPPPPP has a protein stability index of 0.725 ± 0.074.
Sequence PRPSFRPPPPLP has a protein stability index of 0.722 ± 0.011.
Work on PRPSPPPVSPRP yielded a protein stability index of 0.74 ± 0.043.
PRRPLSTPTPLV gave a protein stability index of 0.666 ± 0.049.
In the case of PRRPPSSLWPYP, the protein stability index is reported as 0.669 ± 0.044.
In the case of PRSAPPRRPPTP, the protein stability index is reported as 0.753 ± 0.075.
With PRSPPPLPPSSL the protein stability index was 0.705 ± 0.029.
In the case of PRSPPPPLLSPP, the protein stability index is reported as 0.692 ± 0.037.
PRSPPSPPPPPS gave a protein stability index of 0.641 ± 0.1.
For PRSPSLPPLFSP, the protein stability index was 0.718 ± 0.072.
For PRSSHHPLPSPP, the protein stability index was 0.676 ± 0.071.
For PRSTLLPRSSSC, the protein stability index was 0.654 ± 0.028.
PRSVLGFKMGRF was tested, and the protein stability index was 0.715 ± 0.065.
PRTPAPAPTPRP was tested, and the protein stability index was 0.682 ± 0.017.
Sequence PRTRLPPQLRLP has a protein stability index of 0.694 ± 0.02.
Work on PRYKQSSFAFKK yielded a protein stability index of 0.669 ± 0.036.
For PRYSLPTLLSSR, the protein stability index was 0.678 ± 0.051.
In the case of PRYVQPQCLAQR, the protein stability index is reported as 0.6721 ± 0.0051.
With PSAPPLSHPAPW the protein stability index was 0.675 ± 0.047.
In the case of PSAPRHLIPPPI, the protein stability index is reported as 0.715 ± 0.07.
With PSAPTNPHARLA the protein stability index was 0.689 ± 0.051.
Sequence PSEAPEAPLPRP has a protein stability index of 0.731 ± 0.082.
Sequence PSELGAGNVMGG has a protein stability index of 0.699 ± 0.027.
Sequence PSFPSSSCTSPI has a protein stability index of 0.693 ± 0.1.
In the case of PSGICVLSPRYG, the protein stability index is reported as 0.7 ± 0.016.
PSGLRNAHRHRT showed a protein stability index of 0.719 ± 0.013.
PSGPKAPPHAGR showed a protein stability index of 0.6757 ± 0.0058.
For PSHPLSLFLLFL, the protein stability index was 0.58 ± 0.007.
PSIPRTSTRPTL gave a protein stability index of 0.706 ± 0.037.
For PSIPRTTLLSCN, the protein stability index was 0.607 ± 0.037.
Sequence PSLDCMSIEETT has a protein stability index of 0.679 ± 0.017.
For PSLGLSIPTPLP, the protein stability index was 0.6849 ± 0.0046.
With PSLLFILPSPLP the protein stability index was 0.689 ± 0.015.
For PSLPFPPTPPPC, the protein stability index was 0.686 ± 0.11.
PSLPHSRPRTPT gave a protein stability index of 0.707 ± 0.028.
PSLPPVPPPPRP gave a protein stability index of 0.71 ± 0.04.
PSLSSHPALLFI was tested, and the protein stability index was 0.752 ± 0.038.
Work on PSNPTPLTLLLF yielded a protein stability index of 0.641 ± 0.017.
Work on PSPAPHIPIFFR yielded a protein stability index of 0.742 ± 0.079.
In the case of PSPCPPRPPPSP, the protein stability index is reported as 0.753 ± 0.1.
PSPDLRAPSSVR was tested, and the protein stability index was 0.731 ± 0.024.
With PSPDPCPLGRTA the protein stability index was 0.629 ± 0.067.
Work on PSPFSPPPPSSP yielded a protein stability index of 0.736 ± 0.028.
In the case of PSPGPPATRPAL, the protein stability index is reported as 0.719 ± 0.0036.
With PSPICFYPLGAS the protein stability index was 0.71 ± 0.034.
PSPIHSRQTQWF gave a protein stability index of 0.707 ± 0.015.
Work on PSPLPPPPLLPP yielded a protein stability index of 0.775 ± 0.28.
For PSPLPRPPPLPL, the protein stability index was 0.656 ± 0.039.
For PSPLRDLRSTAL, the protein stability index was 0.663 ± 0.031.
In the case of PSPPFPPPPPPE, the protein stability index is reported as 0.717 ± 0.047.
PSPPLPPPAPLL showed a protein stability index of 0.718 ± 0.056.
PSPPLPPPPSGP gave a protein stability index of 0.677 ± 0.067.
Sequence PSPPLPPPYPLP has a protein stability index of 0.716 ± 0.084.
For PSPPLPPRPPTL, the protein stability index was 0.743 ± 0.013.
Work on PSPPPLPPLPPF yielded a protein stability index of 0.682 ± 0.029.
With PSPPPPAPRPPP the protein stability index was 0.657 ± 0.03.
PSPPPPGPPLAL was tested, and the protein stability index was 0.632 ± 0.033.
In the case of PSPPPPLAPCLP, the protein stability index is reported as 0.666 ± 0.038.
PSPPPPPPPSVR showed a protein stability index of 0.69 ± 0.042.
Sequence PSPPPPPPTPAS has a protein stability index of 0.655 ± 0.024.
PSPPPPTPPVRL showed a protein stability index of 0.722 ± 0.11.
Sequence PSPPPVLLPFFT has a protein stability index of 0.711 ± 0.08.
PSPPSPPPPPPT showed a protein stability index of 0.749 ± 0.06.
PSPPTALCPPPL gave a protein stability index of 0.68 ± 0.15.
PSPPVPRPPPSP gave a protein stability index of 0.647 ± 0.018.
With PSPPVRPPLPPP the protein stability index was 0.652 ± 0.15.
PSPRPPSPLFPP showed a protein stability index of 0.685 ± 0.073.
With PSPRSGPPLASP the protein stability index was 0.6896 ± 0.0012.
With PSPRSPPPSPPS the protein stability index was 0.747 ± 0.12.
Work on PSPSFPPPPLSR yielded a protein stability index of 0.721 ± 0.073.
PSPSLPGRSASP showed a protein stability index of 0.727 ± 0.0081.
With PSPSPPPPPPGL the protein stability index was 0.681 ± 0.064.
In the case of PSPTPTMPPPPP, the protein stability index is reported as 0.71 ± 0.01.
Sequence PSRPPGHPAPKP has a protein stability index of 0.761 ± 0.063.
PSRSLSPSPPFS was tested, and the protein stability index was 0.691 ± 0.066.
With PSSAHLPPPPPP the protein stability index was 0.673 ± 0.014.
In the case of PSSAPPGSPGHL, the protein stability index is reported as 0.701 ± 0.019.
